Results as given in PMC7504384, “Insight into the Folding and Dimerization Mechanisms of the N-Terminal Domain from Human TDP-43” (International Journal of Molecular Sciences, 2020).

Assays:
[1] = target: the molecule itself; test: dynamic light scattering; 0.5 mg/mL (58.7 µM) NTD in 5 mM sodium phosphate buffer, 50 mM NaCl, 1 mM DTT, pH 7.4, 25 °C, no urea; hydrodynamic diameter compared with values calculated for monomer and dimer
[2] = target: the molecule itself; test: SEC; analytical gel filtration, Superdex 200 Increase 10/300 GL, 4 °C, 5 mM phosphate buffer, 50 mM NaCl, pH 7.4, without DTT; 100 µL of 0.5 mg/mL (58.7 µM) NTD loaded; masses from a calibration curve; also run with 150 mM NaCl without DTT

B1: N-terminal domain of human TDP-43 (NTD_(1–77)) (domain or fragment, UniProt Q13148 1-77, looked up)
chain: MSEYIRVTEDENDEPIEIPSEDDGTVLLSTVTAQFPGACGLRYRNPVSQCMRGVRLVEGILHAPDAGWGNLVYVVNY
notes: devoid of any tag; calculated mass 8.53 kDa; Cloning, expression and purification are told only in the Supplementary Materials; also called NTD TDP-43; wild-type protein; source: purified as described in the Supplementary Materials (>95% pure)
stoichiometry N [1]: 2 | stoichiometry N [2]: 4
